B1: TY27566 (bispecific antibody, human IgG1, kappa, N297A)
light: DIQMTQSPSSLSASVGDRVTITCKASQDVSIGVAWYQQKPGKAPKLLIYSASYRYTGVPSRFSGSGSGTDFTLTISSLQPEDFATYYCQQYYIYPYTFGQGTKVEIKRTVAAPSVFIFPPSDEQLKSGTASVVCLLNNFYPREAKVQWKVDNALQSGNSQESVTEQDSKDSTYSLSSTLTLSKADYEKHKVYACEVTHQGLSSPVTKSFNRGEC
heavy: EVQLVESGGGLVQPGGSLRLSCAASGFTFTDYTMDWVRQAPGKGLEWVADVNPNSGGSIYNQRFKGRFTLSVDRSKNTLYLQMNSLRAEDTAVYYCARNLGPSFYFDYWGQGTLVTVSSASTKGPSVFPLAPSSKSTSGGTAALGCLVKDYFPEPVTVSWNSGALTSGVHTFPAVLQSSGLYSLSSVVTVPSSSLGTQTYICNVNHKPSNTKVDKKVEPKSCDKTHTCPPCPAPELLGGPSVFLFPPKPKDTLMISRTPEVTCVVVDVSHEDPEVKFNWYVDGVEVHNAKTKPREEQYASTYRVVSVLTVLHQDWLNGKEYKCKVSNKALPAPIEKTISKAKGQPREPQVYTLPPSRKKLTKNQVKLTCLVKGFYPSDIAVEWESNGQPENNYKTTPPVLDCDGSFFLYSKLTVDKSRWQQGNVFSCSVMHEALHNHYTQKSLSLSPGK
chain: DIQLTQSPSSLSASVGDRVTITCRASQSVDFHGISFLHWYQQKPGKAPKLLIYAASSLQSGVPSRFSGSGSGTDFTLTISSLQPEDFATYYCQQSYRSPRTFGQGTKVEIKGGGGSGGGGSGGGGSGGGGSEVQLVESGGGLVQPGGSLRLSCAASGFSLSTGGVGVSWIRQAPGKGLEWIGEIYHSGSTYYSPSLKSRVTISRDNSKNTLYLQLNSLRAEDTAVYYCARYEYYYYDFDYWGQGTLVTVSSEPKSSDKTHTCPPCPAPELLGGPSVFLFPPKPKDTLMISRTPEVTCVVVDVSHEDPEVKFNWYVDGVEVHNAKTKPREEQYASTYRVVSVLTVLHQDWLNGKEYKCKVSNKALPAPIEKTISKAKGQPREPQVYTDPPSRDELTKNQVSLTCLVDGFYPSDIAVEWESNGQPENCYKTTPPVLDSDGSFFLYSKLTVDKSRWQQGNVFSCSVMHEALHNHYTQDSLSLSPGK
notes: also called anti-HER2xCD28 BsAb; TY27566 (WT)
B2: TY29109 (bispecific antibody, human IgG1, kappa, N297A)
light: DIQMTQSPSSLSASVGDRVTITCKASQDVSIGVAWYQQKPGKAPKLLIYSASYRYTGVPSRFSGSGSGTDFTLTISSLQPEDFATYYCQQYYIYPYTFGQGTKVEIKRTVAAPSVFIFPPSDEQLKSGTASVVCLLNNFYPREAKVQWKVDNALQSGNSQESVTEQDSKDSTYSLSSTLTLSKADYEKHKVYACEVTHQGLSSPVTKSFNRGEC
heavy: B1 heavy
chain: EVQLVESGGGLVQPGGSLRLSCAASGFSLSTGGVGVSWIRQAPGKGLEWIGEIYHSGSTYYSPSLKSRVTISRDNSKNTLYLQLNSLRAEDTAVYYCARYEYYYYDFDYWGQGTLVTVSSGGGGSGGGGSGGGGSGGGGSDIQLTQSPSSLSASVGDRVTITCRASQSVDFHGISFLHWYQQKPGKAPKLLIYAASSLQSGVPSRFSGSGSGTDFTLTISSLQPEDFATYYCQQSYRSPRTFGQGTKVEIKEPKSSDKTHTCPPCPAPELLGGPSVFLFPPKPKDTLMISRTPEVTCVVVDVSHEDPEVKFNWYVDGVEVHNAKTKPREEQYASTYRVVSVLTVLHQDWLNGKEYKCKVSNKALPAPIEKTISKAKGQPREPQVYTDPPSRDELTKNQVSLTCLVDGFYPSDIAVEWESNGQPENCYKTTPPVLDSDGSFFLYSKLTVDKSRWQQGNVFSCSVMHEALHNHYTQDSLSLSPGK
notes: anti-HER2 Fab x CD28 scFv WT (VH-VL)-Fc; also called TY29109 (WT)
B3: TY29312 (bispecific antibody, human IgG1, kappa, N297A)
light: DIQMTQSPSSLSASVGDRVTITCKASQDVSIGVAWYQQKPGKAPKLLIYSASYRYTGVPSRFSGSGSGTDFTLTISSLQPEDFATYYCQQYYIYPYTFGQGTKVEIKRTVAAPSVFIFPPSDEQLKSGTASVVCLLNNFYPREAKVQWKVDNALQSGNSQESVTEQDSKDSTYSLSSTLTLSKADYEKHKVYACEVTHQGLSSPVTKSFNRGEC
heavy: B1 heavy
chain: B2 chain with G32S, S37G, E52S, S62N, Y103D, H172Y, I174K, Q199E, R240L
notes: anti-HER2 Fab x CD28 scFv BC8240 (VH-VL)-Fc
B4: TY28659 (bispecific antibody, human IgG1, kappa, N297A)
light: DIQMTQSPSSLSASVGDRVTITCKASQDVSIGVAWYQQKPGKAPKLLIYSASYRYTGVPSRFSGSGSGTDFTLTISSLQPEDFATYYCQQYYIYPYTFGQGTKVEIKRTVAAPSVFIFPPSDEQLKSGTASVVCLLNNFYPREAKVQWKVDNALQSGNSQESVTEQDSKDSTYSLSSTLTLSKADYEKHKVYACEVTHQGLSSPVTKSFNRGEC
heavy: B1 heavy
chain: B1 chain with G163S, S193N, Y234G, D237A
notes: anti-HER2 Fab x CD28 scFv BC8242 (VL-VH)-Fc
B5: TY28656 (bispecific antibody, human IgG1, kappa, N297A)
light: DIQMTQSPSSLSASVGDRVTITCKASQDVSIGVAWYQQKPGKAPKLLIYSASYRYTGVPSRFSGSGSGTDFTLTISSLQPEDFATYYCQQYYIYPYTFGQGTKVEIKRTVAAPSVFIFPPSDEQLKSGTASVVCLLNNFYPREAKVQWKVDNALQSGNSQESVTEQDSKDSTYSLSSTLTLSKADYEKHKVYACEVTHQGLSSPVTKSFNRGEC
heavy: B1 heavy
chain: B1 chain with H32Y, I34K, S98T, G163S, S168G, Y191N, S193N, Y234G, D237A, F238L
notes: anti-HER2 Fab x CD28 scFv BC8235 (VL-VH)-Fc
B6: TY29315 (bispecific antibody, human IgG1, kappa, N297A)
light: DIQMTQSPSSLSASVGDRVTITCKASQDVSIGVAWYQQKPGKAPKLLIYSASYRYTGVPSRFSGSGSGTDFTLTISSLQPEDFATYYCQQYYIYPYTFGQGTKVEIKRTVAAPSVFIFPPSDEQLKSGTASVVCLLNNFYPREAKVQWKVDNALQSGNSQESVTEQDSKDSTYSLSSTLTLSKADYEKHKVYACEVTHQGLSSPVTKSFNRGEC
heavy: B1 heavy
chain: B2 chain with E52S, Y103D, D106A, H172Y, Q199E, S238T, R240L
notes: anti-HER2 Fab x CD28 scFv BC8263 (VH-VL)-Fc
B7: TY29306 (bispecific antibody, human IgG1, kappa, N297A)
light: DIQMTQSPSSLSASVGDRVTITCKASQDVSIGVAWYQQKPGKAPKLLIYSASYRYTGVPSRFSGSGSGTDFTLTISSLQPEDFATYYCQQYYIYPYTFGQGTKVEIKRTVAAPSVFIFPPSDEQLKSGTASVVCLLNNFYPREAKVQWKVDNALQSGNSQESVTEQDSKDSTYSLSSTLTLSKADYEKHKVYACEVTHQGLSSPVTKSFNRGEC
heavy: B1 heavy
chain: B2 chain with E52S, S62N, Y103D, D106A, H172Y, I174K, Q199E, R240P
notes: anti-HER2 Fab x CD28 scFv BC8227 (VH-VL)-Fc
B8: TY28652 (bispecific antibody, human IgG1, kappa, N297A)
light: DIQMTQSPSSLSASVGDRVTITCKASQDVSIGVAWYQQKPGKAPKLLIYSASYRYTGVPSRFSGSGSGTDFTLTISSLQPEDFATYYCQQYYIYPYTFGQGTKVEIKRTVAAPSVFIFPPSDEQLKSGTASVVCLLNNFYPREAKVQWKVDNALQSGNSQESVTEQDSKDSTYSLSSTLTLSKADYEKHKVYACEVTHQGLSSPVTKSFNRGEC
heavy: B1 heavy
chain: B1 chain with H32Y, I34K, Q59E, R100P, E183S, S193N, Y234D, D237A
notes: anti-HER2 Fab x CD28 scFv BC8227 (VL-VH)-Fc
B9: TY28660 (bispecific antibody, human IgG1, kappa, N297A)
light: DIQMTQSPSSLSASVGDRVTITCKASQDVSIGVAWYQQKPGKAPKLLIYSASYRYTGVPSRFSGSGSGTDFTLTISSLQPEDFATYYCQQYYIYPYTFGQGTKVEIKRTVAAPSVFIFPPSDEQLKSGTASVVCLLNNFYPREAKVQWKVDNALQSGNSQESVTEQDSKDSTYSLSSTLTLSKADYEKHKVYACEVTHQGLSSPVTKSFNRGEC
heavy: B1 heavy
chain: B1 chain with I34K, G163S, Y235S, D237A
notes: anti-HER2 Fab x CD28 scFv BC8257 (VL-VH)-Fc
B10: TY29309 (bispecific antibody, human IgG1, kappa, N297A)
light: not shown
heavy: B1 heavy
chain: B2 chain with G32S, E52S, S62N, Y103D, D106A, H172Y, S238T
notes: anti-HER2 Fab x CD28 scFv BC8233 (VH-VL)-Fc
B11: TY29314 (bispecific antibody, human IgG1, kappa, N297A)
light: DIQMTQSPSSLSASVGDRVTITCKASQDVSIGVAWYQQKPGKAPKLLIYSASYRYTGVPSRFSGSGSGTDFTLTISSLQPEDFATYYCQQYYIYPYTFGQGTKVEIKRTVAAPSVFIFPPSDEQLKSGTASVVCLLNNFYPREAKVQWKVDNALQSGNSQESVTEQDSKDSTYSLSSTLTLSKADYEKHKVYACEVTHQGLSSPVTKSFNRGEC
heavy: B1 heavy
chain: B2 chain with G32S, Y104S, D106A, I174K
notes: anti-HER2 Fab x CD28 scFv BC8257 (VH-VL)-Fc
B12: TY28655 (bispecific antibody, human IgG1, kappa, N297A)
light: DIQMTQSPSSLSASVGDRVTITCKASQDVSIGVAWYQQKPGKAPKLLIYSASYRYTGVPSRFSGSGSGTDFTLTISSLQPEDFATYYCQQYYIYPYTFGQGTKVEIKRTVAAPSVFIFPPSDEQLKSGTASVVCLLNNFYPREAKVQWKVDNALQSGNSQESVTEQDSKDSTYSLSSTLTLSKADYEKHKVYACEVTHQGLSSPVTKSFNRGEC
heavy: B1 heavy
chain: B1 chain with H32Y, S98T, G163S, E183S, S193N, Y234D, D237A
notes: anti-HER2 Fab x CD28 scFv BC8233 (VL-VH)-Fc
B13: TY28654 (bispecific antibody, human IgG1, kappa, N297A)
light: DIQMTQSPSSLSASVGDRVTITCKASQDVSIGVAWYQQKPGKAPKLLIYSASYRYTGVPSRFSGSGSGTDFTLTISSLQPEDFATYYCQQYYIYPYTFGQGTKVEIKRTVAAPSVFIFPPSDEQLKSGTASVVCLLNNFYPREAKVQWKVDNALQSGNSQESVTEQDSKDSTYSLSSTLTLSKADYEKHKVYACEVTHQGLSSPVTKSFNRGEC
heavy: B1 heavy
chain: B1 chain with H32Y, I34K, S98T, R100L, G163S, E183S, S193N, Y234G, D237A
notes: anti-HER2 Fab x CD28 scFv BC8230 (VL-VH)-Fc
B14: TY28658 (bispecific antibody, human IgG1, kappa, N297A)
light: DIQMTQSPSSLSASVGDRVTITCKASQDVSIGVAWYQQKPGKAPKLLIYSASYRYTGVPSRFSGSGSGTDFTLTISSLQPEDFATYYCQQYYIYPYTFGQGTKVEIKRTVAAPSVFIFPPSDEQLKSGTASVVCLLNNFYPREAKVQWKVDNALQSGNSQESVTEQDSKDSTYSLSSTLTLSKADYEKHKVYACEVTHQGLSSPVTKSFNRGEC
heavy: B1 heavy
chain: B1 chain with H32Y, I34K, Q59E, R100L, G163S, S168G, E183S, S193N, Y234D
notes: anti-HER2 Fab x CD28 scFv BC8240 (VL-VH)-Fc
B15: TY28657 (bispecific antibody, human IgG1, kappa, N297A)
light: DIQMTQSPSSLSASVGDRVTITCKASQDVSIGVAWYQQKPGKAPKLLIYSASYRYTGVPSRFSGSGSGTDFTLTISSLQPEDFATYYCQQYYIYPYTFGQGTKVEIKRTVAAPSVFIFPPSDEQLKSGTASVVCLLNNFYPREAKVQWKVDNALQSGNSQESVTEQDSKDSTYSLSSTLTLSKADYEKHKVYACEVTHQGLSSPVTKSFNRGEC
heavy: B1 heavy
chain: B1 chain with Q59E, S98T, S168G, S193N, Y234G, D237A
notes: anti-HER2 Fab x CD28 scFv BC8237 (VL-VH)-Fc
B16: TY29313 (bispecific antibody, human IgG1, kappa, N297A)
light: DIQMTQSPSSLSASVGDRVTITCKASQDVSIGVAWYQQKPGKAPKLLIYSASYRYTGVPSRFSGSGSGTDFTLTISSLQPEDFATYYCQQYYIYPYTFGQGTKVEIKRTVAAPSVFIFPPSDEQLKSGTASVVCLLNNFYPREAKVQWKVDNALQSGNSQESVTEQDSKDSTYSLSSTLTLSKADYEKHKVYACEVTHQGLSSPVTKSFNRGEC
heavy: B1 heavy
chain: B2 chain with G32S, S62N, Y103G, D106A
notes: anti-HER2 Fab x CD28 scFv BC8242 (VH-VL)-Fc
B17: TY29311 (bispecific antibody, human IgG1, kappa, N297A)
light: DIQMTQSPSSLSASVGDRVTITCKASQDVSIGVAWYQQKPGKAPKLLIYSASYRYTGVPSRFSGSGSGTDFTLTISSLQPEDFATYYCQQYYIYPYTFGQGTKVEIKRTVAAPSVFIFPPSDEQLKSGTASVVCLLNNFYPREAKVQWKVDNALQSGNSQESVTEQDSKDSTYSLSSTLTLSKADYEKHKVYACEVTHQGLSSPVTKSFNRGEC
heavy: B1 heavy
chain: B2 chain with S37G, S62N, Y103G, D106A, Q199E, S238T
notes: anti-HER2 Fab x CD28 scFv BC8237 (VH-VL)-Fc
B18: TY29308 (bispecific antibody, human IgG1, kappa, N297A)
light: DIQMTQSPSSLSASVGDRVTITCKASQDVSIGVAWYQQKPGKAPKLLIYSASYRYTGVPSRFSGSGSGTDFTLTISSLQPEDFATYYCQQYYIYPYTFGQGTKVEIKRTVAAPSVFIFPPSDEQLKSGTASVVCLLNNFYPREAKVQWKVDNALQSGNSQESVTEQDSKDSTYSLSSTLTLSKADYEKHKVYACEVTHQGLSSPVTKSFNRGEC
heavy: B1 heavy
chain: B2 chain with G32S, E52S, S62N, Y103G, D106A, H172Y, I174K, S238T, R240L
notes: anti-HER2 Fab x CD28 scFv BC8230 (VH-VL)-Fc
B19: TY28661 (bispecific antibody, human IgG1, kappa, N297A)
light: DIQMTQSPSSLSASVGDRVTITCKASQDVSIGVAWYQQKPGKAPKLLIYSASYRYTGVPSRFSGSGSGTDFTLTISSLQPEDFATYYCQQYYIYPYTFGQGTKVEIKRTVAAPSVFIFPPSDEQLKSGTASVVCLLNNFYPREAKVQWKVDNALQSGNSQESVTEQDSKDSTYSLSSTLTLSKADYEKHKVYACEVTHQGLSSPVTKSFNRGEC
heavy: B1 heavy
chain: B1 chain with H32Y, Q59E, S98T, R100L, E183S, Y234D, D237A
notes: anti-HER2 Fab x CD28 scFv BC8263 (VL-VH)-Fc
B20: TY29307 (bispecific antibody, human IgG1, kappa, N297A)
light: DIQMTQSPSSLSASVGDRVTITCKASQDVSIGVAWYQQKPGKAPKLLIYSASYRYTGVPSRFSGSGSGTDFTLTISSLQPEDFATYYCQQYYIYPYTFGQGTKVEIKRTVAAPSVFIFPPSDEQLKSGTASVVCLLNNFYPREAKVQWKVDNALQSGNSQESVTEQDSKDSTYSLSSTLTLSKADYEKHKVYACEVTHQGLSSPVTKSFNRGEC
heavy: B1 heavy
chain: B2 chain with E52S, S62N, Y103G, D106A, F107L, H172Y, S238T, R240P
notes: anti-HER2 Fab x CD28 scFv BC8228 (VH-VL)-Fc
B21: TY28653 (bispecific antibody, human IgG1, kappa, N297A)
light: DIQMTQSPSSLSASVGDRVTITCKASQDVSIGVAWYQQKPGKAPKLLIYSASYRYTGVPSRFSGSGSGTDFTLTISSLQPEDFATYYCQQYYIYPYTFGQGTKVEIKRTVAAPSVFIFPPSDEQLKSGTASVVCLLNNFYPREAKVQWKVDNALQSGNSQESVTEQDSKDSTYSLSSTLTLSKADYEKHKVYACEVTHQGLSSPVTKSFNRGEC
heavy: B1 heavy
chain: B1 chain with H32Y, S98T, R100P, E183S, S193N, Y234G, D237A, F238L
notes: anti-HER2 Fab x CD28 scFv BC8228 (VL-VH)-Fc
B22: TY29310 (bispecific antibody, human IgG1, kappa, N297A)
light: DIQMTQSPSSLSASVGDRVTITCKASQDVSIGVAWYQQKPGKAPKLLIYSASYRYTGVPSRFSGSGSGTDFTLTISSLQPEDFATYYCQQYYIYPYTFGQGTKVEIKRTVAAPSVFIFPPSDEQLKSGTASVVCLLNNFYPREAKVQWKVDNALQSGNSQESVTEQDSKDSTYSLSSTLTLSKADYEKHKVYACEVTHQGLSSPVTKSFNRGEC
heavy: B1 heavy
chain: B2 chain with G32S, S37G, Y60N, S62N, Y103G, D106A, F107L, H172Y, I174K, S238T
notes: anti-HER2 Fab x CD28 scFv BC8235 (VH-VL)-Fc

Changes are numbered by the printed parent chain.

In the assay the target is Human CD28 (ELISAs of Examples 4 and 13) (human, UniProt P10747 19-152, limits assumed). The assay can be described thus: ELISA.
B1 displayed an EC50 of 0.00389 µM.

Molecule B2 had an EC50 of 0.0303 µM.

For the molecule B3, the response was half-maximal at 0.624 µM (EC50).

As to B4, a half-maximal response (EC50) required 0.000954 µM.

Molecule B5 had an EC50 of 0.128 µM.

Take B6: the EC50 was determined as 0.291 µM.

For the molecule B7, the EC50 was 0.00927 µM.

As for B8, it took 0.00368 µM to reach a half-maximal effect (EC50).

For the molecule B9, the midpoint of the response, the EC50, lay at 0.00377 µM.

In turn, B10 showed an EC50 of 0.0277 µM.

B11: the EC50 amounted to 0.0275 µM.

With B12, a half-maximal response (EC50) required 0.00814 µM.

For B13, the response was half-maximal at 0.0684 µM (EC50).

On to B14, for which a half-maximal response (EC50) required 0.078 µM.

The molecule B15 had an EC50 of 0.00529 µM.

With B16, the concentration giving a half-maximal response (EC50) came to 0.00697 µM.

With B17, the response was half-maximal at 0.0913 µM (EC50).

In turn, B18 returned an EC50 of 0.417 µM.

Take B19: the 50% effective concentration (EC50) was found to be 0.0526 µM.

In turn, B20 yielded an EC50 of 0.0278 µM.

B21 came in with an EC50 of 0.0073 µM.

Regarding B22, the EC50 came out at 0.349 µM.

Source of the values: patent US20250257133A1 (ADAGENE PTE, published 2025).
